pEC50: −log10 of the molar value. Each block holds one substance with its values, some of them ahead of it.
What was measured:
[1] = molecular target: recombinant mouse CD71 (Sino Biological Inc., Beijing, China) (mouse) (UniProt Q62351); assay: plate binding to coated recombinant mouse CD71; EC50 of the conjugate against that of clone R17
[2] = molecular target: recombinant mouse CD71 (Sino Biological Inc., Beijing, China) (mouse) (UniProt Q62351); assay: plate binding to coated recombinant mouse CD71, RiboGreen fluorescence detection of the conjugate's siRNA
[3] = molecular target: CD71 on primary hepatocytes; assay: cell-based or functional assay
[4] = molecular target: recombinant mouse CD71 (Sino Biological Inc., Beijing, China) (mouse) (UniProt Q62351); assay: plate binding to coated recombinant mouse CD71, Alexa Fluor 488 labeled secondary antibody, fluorescence

UniProt Q62351, sequence (Q62351 89-763 limits assumed): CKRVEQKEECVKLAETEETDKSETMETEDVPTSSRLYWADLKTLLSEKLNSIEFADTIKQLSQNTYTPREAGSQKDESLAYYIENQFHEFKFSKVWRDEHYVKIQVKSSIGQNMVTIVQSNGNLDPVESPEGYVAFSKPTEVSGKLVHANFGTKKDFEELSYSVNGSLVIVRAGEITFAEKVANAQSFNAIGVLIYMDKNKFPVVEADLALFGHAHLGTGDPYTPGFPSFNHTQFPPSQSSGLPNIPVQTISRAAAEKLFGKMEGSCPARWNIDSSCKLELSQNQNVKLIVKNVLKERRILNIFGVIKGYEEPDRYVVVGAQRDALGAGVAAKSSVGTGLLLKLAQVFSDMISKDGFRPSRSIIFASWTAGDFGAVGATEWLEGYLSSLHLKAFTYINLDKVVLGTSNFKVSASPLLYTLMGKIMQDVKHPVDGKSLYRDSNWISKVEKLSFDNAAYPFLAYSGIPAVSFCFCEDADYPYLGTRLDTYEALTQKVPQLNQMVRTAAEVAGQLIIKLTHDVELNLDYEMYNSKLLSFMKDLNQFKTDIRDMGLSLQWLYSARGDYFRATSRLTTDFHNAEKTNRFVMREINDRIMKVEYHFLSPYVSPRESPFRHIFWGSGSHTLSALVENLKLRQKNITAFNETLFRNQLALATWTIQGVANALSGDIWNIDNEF

- fold difference of EC50 between clone R17 and the conjugate [1]: 20 fold
- pEC50 [2]: 7.54
Substance: clone R17 Fab'-siHPRT conjugate linked with the maleimide linker

- EC50 in inhibiting of ApoB gene expression (primary hepatocytes, quantitative PCR) [3]: 0.011 µM
- silencing of ApoB at 900 nM (primary hepatocytes, quantitative PCR) [3]: 46%
Substance: clone R17 Fab'-siApoB conjugate linked with the maleimide linker

- pEC50 [4]: 8.82
Substance: anti-CD71 antibody (clone R17 217.1.3) purchased from Bio X Cell

— US20250082772A1
